Measurements published in patent publication US20230272055A1 (Incyte, published 2023).
Changes are numbered by the printed parent chain. Names and notes keep the numbering of the source.

B1: anti-mutCALR antibody clone 174 (antibody, human IgG1, lambda, N297A, V domains shown)
VH: EVQLVQSGAEVKKPGASVKVSCKVSGYTLTELSMQWVRQAPGKGLEWMGGFDPDDAETMYAEKFQGRLTVTEDTSTDTVYMELRSLTSEDTALYFCATSPGYDFFDYWGQGTLVTVSS
VL: SYVLTQPPSVSVAPGQTARITCGGSDIGDEIVHWYQQKPGQAPVLVVYDDSDRPSGIPERFSGSNSGNTATLTISRAQAGDEADYYCQVWDSSSDHLIFGGGTKLTVLG
B2: anti-mutCALR antibody clone 180 (antibody, human IgG1, lambda, N297A, V domains shown)
VH: B1 VH with A56G
VL: B1 VL with A77V, Q78E
notes: human IgG1 N297A variant of clone 17
B3: anti-mutCALR antibody clone 181 (antibody, human IgG1, lambda, N297A, V domains shown)
VH: B1 VH with D55A, A56G
VL: B1 VL with A77V, Q78E
notes: as for B2
B4: anti-mutCALR antibody clone 182 (antibody, human IgG1, lambda, N297A, V domains shown)
VH: B1 VH with D55S, A56G
VL: B1 VL with A77V, Q78E
notes: as for B2
B5: anti-mutCALR antibody clone 183 (antibody, human IgG1, lambda, N297A, V domains shown)
VH: B1 VH with D55E, A56G
VL: B1 VL with A77V, Q78E
B6: anti-mutCALR antibody clone 184 (antibody, human IgG1, lambda, N297A, V domains shown)
VH: B1 VH
VL: B1 VL with A77V, Q78E
notes: as for B2
B7: anti-mutCALR antibody clone 185 (antibody, human IgG1, lambda, N297A, V domains shown)
VH: B1 VH with A56G, R84S, T87R, L93V
VL: B1 VL with A77V, Q78E
notes: as for B2
B8: anti-mutCALR antibody clone 186 (antibody, human IgG1, lambda, N297A, V domains shown)
VH: B1 VH with D55A, A56G, R84S, T87R, L93V
VL: B1 VL with A77V, Q78E
notes: as for B2
B9: anti-mutCALR antibody clone 187 (antibody, human IgG1, lambda, N297A, V domains shown)
VH: B1 VH with D55S, A56G, R84S, T87R, L93V
VL: B1 VL with A77V, Q78E
notes: as for B2
B10: anti-mutCALR antibody clone 188 (antibody, human IgG1, lambda, N297A, V domains shown)
VH: B1 VH with D55E, A56G, R84S, T87R, L93V
VL: B1 VL with A77V, Q78E
notes: as for B2
B11: anti-mutCALR antibody clone 189 (antibody, human IgG1, lambda, N297A, V domains shown)
VH: B1 VH with R84S, T87R, L93V
VL: B1 VL with A77V, Q78E
B12: anti-mutCALR antibody clone 55 (antibody, human IgG1, lambda, N297A)
heavy: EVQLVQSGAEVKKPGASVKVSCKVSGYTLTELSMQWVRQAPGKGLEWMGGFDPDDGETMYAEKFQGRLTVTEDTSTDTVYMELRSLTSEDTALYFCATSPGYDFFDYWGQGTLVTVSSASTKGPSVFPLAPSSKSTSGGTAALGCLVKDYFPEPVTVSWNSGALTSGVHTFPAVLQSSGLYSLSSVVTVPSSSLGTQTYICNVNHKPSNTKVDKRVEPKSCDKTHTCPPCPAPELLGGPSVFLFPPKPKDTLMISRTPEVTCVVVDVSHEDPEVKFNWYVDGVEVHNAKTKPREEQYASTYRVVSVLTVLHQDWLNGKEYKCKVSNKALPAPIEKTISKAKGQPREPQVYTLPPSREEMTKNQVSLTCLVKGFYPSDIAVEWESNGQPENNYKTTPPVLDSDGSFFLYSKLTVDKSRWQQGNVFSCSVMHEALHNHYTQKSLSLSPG
light: QSALTQPASVSGSPGQSITISCTGTSSDVGGYNYVSWYQQHPGKAPKLMIYEVSNRPSGVSNRFSGSNSGNTATLTINRVEAGDEADYYCQVWDSSNDLLIFGGGTKLTVLGQPKAAPSVTLFPPSSEELQANKATLVCLISDFYPGAVTVAWKADSSPVKAGVETTTPSKQSNNKYAASSYLSLTPEQWKSHRSYSCQVTHEGSTVEKTVAPTECS
notes: human IgG1 N297A variant of clone 6; also called antibody 55
B13: anti-mutCALR antibody clone 56 (antibody, human IgG1, lambda, N297A, V domains shown)
VH: B1 VH with D55A, A56G
VL: QSALTQPASVSGSPGQSITISCTGTSSDVGGYNYVSWYQQHPGKAPKLMIYEVSNRPSGVSNRFSGSNSGNTATLTINRVEAGDEADYYCQVWDSSNDLLIFGGGTKLTVLG
notes: human IgG1 N297A variant of clone 6
B14: anti-mutCALR antibody clone 57 (antibody, human IgG1, lambda, N297A, V domains shown)
VH: B1 VH with D55S, A56G
VL: B13 VL
notes: as for B13
B15: anti-mutCALR antibody clone 58 (antibody, human IgG1, lambda, N297A, V domains shown)
VH: B1 VH with D55E, A56G
VL: B13 VL
notes: as for B13
B16: anti-mutCALR antibody clone 59 (antibody, human IgG1, lambda, N297A, V domains shown)
VH: B1 VH
VL: B13 VL
notes: as for B13
B17: anti-mutCALR antibody clone 60 (antibody, human IgG1, lambda, N297A, V domains shown)
VH: B1 VH with A56G, R84S, T87R, L93V
VL: B13 VL
notes: as for B13
B18: anti-mutCALR antibody clone 61 (antibody, human IgG1, lambda, N297A, V domains shown)
VH: B1 VH with D55A, A56G, R84S, T87R, L93V
VL: B13 VL
notes: as for B13
B19: anti-mutCALR antibody clone 62 (antibody, human IgG1, lambda, N297A, V domains shown)
VH: B1 VH with D55S, A56G, R84S, T87R, L93V
VL: B13 VL
notes: as for B13
B20: anti-mutCALR antibody clone 63 (antibody, human IgG1, lambda, N297A, V domains shown)
VH: B1 VH with D55E, A56G, R84S, T87R, L93V
VL: B13 VL
notes: as for B13
B21: anti-mutCALR antibody clone 64 (antibody, human IgG1, lambda, N297A, V domains shown)
VH: B1 VH with R84S, T87R, L93V
VL: B13 VL
notes: as for B13
B22: anti-mutCALR antibody clone 70 (antibody, human IgG1, lambda, N297A, V domains shown)
VH: B1 VH with A56G, R84S, T87R, L93V
VL: SYVLTQPPSVSVAPGKTARITCTGTSSDVGGYNYVSWYQQKPGQAPVLVVYEVSNRPSGIPERFSGSNSGNTATLTISRVEAGDEADYYCQVWDSSNDLLIFGGGTKLTVLG
notes: as for B13
B23: anti-mutCALR antibody clone 66 (antibody, human IgG1, lambda, N297A, V domains shown)
VH: B1 VH with D55A, A56G
VL: B22 VL
notes: as for B13
B24: anti-mutCALR antibody clone 67 (antibody, human IgG1, lambda, N297A, V domains shown)
VH: B1 VH with D55S, A56G
VL: B22 VL
notes: as for B13
B25: anti-mutCALR antibody clone 68 (antibody, human IgG1, lambda, N297A, V domains shown)
VH: B1 VH with D55E, A56G
VL: B22 VL
notes: as for B13

Target: T1, Recombinant MBP-mutCALR Type 1 fusion protein (human)
T1 construct: custom made at Cepter; also called recombinant mutCALR protein
Assay: SPR, IgG captured, 1:1 fit, Exp. 2
Experimental: Experiment 2: Recombinant MBP-mutCALR Type 1 fusion protein was custom made at Cepter (cepterbiopartners.com). Data for the interaction of antibodies with recombinant mutCALR protein were collected at 25° C. on a Biacore 8K instrument (Cytiva, Marlborough, Mass.), and all reagents were obtained from Cytiva unless otherwise specified. The experiments were conducted using Tris-buffered saline (pH 7.2), 0.005% Surfactant P20, 1 mM CaCl₂) as running buffer. To prepare the capture surfaces, anti-human IgG (Fc) antibodies (Product #29234600) was amine-coupled onto a CM4 chip (Product #BR100534) under standard conditions using an Amine Coupling Kit (Product #BR100050). […] The kinetics parameters were obtained by applying 1:1 binding model to fit the data from multiple-cycle injection experiments using Biacore Insight Evaluation software.

Question: With B1 as the binder, how does the Kd read?
Answer: 0.526 nM

Question: And the koff?
Answer: 0.0041 s⁻¹

Question: And the kon?
Answer: 7.8e+06 M⁻¹ s⁻¹

Question: What does the source list for B2?
Answer: Kd: 0.198 nM; koff: 0.127 s⁻¹; kon: > 1e+07 M⁻¹ s⁻¹

Question: Which Kd does the source give for B3 here?
Answer: 1.58 nM

Question: What about the koff of the same binder?
Answer: 0.0209 s⁻¹

Question: And the kon?
Answer: 1e+07 M⁻¹ s⁻¹

Question: How did the Kd turn out when B4 was run?
Answer: 1.23 nM

Question: And the koff?
Answer: 0.00692 s⁻¹

Question: And the kon?
Answer: 5.62e+06 M⁻¹ s⁻¹

Question: Which results are given for B5?
Answer: Kd: 1 nM; koff: 0.00124 s⁻¹; kon: 1.23e+06 M⁻¹ s⁻¹

Question: B6 was tested. Which Kd did it give?
Answer: 1.57 nM

Question: And the koff?
Answer: 0.000673 s⁻¹

Question: And the kon?
Answer: 428000 M⁻¹ s⁻¹

Question: How did the Kd turn out when B7 was run?
Answer: 0.171 nM

Question: And the koff?
Answer: 0.000911 s⁻¹

Question: And the kon?
Answer: 5.32e+06 M⁻¹ s⁻¹

Question: What does the source list for B8?
Answer: Kd: 2.86 nM; koff: 0.00243 s⁻¹; kon: 848000 M⁻¹ s⁻¹

Question: B9 was tested. Which Kd did it give?
Answer: 1.59 nM

Question: What about the koff of the same binder?
Answer: 0.0163 s⁻¹

Question: And the kon?
Answer: 1e+07 M⁻¹ s⁻¹

Question: Which Kd does the source give for B10 here?
Answer: 1.65 nM

Question: And the koff?
Answer: 0.00121 s⁻¹

Question: And the kon?
Answer: 732000 M⁻¹ s⁻¹

Question: What does the source list for B11?
Answer: Kd: 0.422 nM; koff: 0.0153 s⁻¹; kon: > 1e+07 M⁻¹ s⁻¹

Question: For B12, which Kd is on record?
Answer: 0.171 nM

Question: And the koff?
Answer: 0.000911 s⁻¹

Question: What about the kon of the same binder?
Answer: 5.32e+06 M⁻¹ s⁻¹

Question: With B13 as the binder, how does the Kd read?
Answer: 3.08 nM

Question: What about the koff of the same binder?
Answer: 0.00212 s⁻¹

Question: What about the kon of the same binder?
Answer: 690000 M⁻¹ s⁻¹

Question: With B14 as the binder, how does the Kd read?
Answer: 0.637 nM

Question: And the koff?
Answer: 0.0039 s⁻¹

Question: And the kon?
Answer: 6.12e+06 M⁻¹ s⁻¹

Question: Which results are given for B15?
Answer: Kd: 0.343 nM; koff: 0.00232 s⁻¹; kon: 6.76e+06 M⁻¹ s⁻¹

Question: Which results are given for B16?
Answer: Kd: 1.44 nM; koff: 0.00136 s⁻¹; kon: 945000 M⁻¹ s⁻¹

Question: How did the Kd turn out when B17 was run?
Answer: 1.15 nM

Question: And the koff?
Answer: 0.00166 s⁻¹

Question: And the kon?
Answer: 1.44e+06 M⁻¹ s⁻¹

Question: Which Kd does the source give for B18 here?
Answer: 0.893 nM

Question: What about the koff of the same binder?
Answer: 0.00369 s⁻¹

Question: What about the kon of the same binder?
Answer: 4.13e+06 M⁻¹ s⁻¹

Question: B19 was tested. Which Kd did it give?
Answer: 1.76 nM

Question: What about the koff of the same binder?
Answer: 0.00621 s⁻¹

Question: What about the kon of the same binder?
Answer: 3.52e+06 M⁻¹ s⁻¹

Question: How did the Kd turn out when B20 was run?
Answer: 0.244 nM

Question: And the koff?
Answer: 0.000691 s⁻¹

Question: And the kon?
Answer: 2.83e+06 M⁻¹ s⁻¹

Question: B21 was tested. Which Kd did it give?
Answer: 0.638 nM

Question: And the koff?
Answer: 0.00248 s⁻¹

Question: What about the kon of the same binder?
Answer: 3.89e+06 M⁻¹ s⁻¹

Question: Which Kd does the source give for B22 here?
Answer: 0.966 nM

Question: And the koff?
Answer: 0.000953 s⁻¹

Question: What about the kon of the same binder?
Answer: 987000 M⁻¹ s⁻¹

Question: B23 was tested. Which Kd did it give?
Answer: 2.36 nM

Question: What about the koff of the same binder?
Answer: 0.00836 s⁻¹

Question: And the kon?
Answer: 3.54e+06 M⁻¹ s⁻¹

Question: Which Kd does the source give for B24 here?
Answer: 3.34 nM

Question: And the koff?
Answer: 0.0102 s⁻¹

Question: And the kon?
Answer: 3.05e+06 M⁻¹ s⁻¹

Question: B25 was tested. Which Kd did it give?
Answer: 1.15 nM

Question: What about the koff of the same binder?
Answer: 0.00166 s⁻¹

Question: And the kon?
Answer: 1.44e+06 M⁻¹ s⁻¹
